# Columns and labels:
# [1] = system: SLPI present in human saliva
# Chain of SLPI present in human saliva (chain, as listed by the source): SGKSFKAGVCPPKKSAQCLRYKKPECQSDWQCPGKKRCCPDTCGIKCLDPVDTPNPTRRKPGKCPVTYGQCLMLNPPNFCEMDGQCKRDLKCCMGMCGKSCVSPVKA
# Chain of tryptase (chain, as listed by the source): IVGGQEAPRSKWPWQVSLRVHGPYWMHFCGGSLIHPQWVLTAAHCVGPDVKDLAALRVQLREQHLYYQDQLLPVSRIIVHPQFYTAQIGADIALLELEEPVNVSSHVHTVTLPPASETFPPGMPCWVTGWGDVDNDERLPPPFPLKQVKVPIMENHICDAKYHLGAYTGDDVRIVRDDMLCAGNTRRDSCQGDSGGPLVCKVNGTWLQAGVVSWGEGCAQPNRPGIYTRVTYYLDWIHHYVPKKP
substance,measurement,setting,value
tryptase,"cleavage of rSLPI, LC/MS (1 ug rSLPI, 50 ng protease, 5 hours)",recombinant human SLPI,did not result in the formation of the second peak
same,cleavage of the reduced form of rSLPI,recombinant human SLPI,Reduction of the rSLPI samples in the presence of the proteases did result in cleavage of the SLPI protein
same,"cleavage of SLPI in human saliva, Western analysis",[1],"The larger SLPI cleavage product was not observed when the saliva samples were incubated with cathepsin G, tryptase and proteinase 3"

# Source: patent US20070166779
